# Experimental data as given in article PMC12646051.
# Tests used:
# [1] = target: hSlo1EM-TS (modified human Slo1 BK α subunit with a C-terminal twin-strep tag) (human) (UniProt Q12791); assay: pull-down + SEC; TR1 (1:1:1); three-step affinity purification: streptactin XT (Slo1), then anti-FLAG M2 resin (β2) and anti-ρ1D4 resin (β3) one after the other, in either order; eluates, input and flow-through read by dual-colour FSEC
# [2] = target: β2-RF (full-length human BK β2 subunit with C-terminal mCherry-FLAG) (human) (UniProt Q9Y691); assay: as above
# Sequence of β2-RF (full-length human BK β2 subunit with C-terminal mCherry-FLAG) (human) (Q9Y691 whole entry): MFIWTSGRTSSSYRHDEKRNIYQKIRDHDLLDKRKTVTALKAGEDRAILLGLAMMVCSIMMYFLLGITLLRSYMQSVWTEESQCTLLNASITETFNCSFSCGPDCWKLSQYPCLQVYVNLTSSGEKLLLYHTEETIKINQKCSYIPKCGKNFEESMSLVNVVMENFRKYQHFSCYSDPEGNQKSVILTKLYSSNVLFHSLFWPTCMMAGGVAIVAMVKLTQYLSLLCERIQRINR
# [3] = target: hSlo1EM-TS (modified human Slo1 BK α subunit with a C-terminal twin-strep tag) (human) (UniProt Q12791); assay: pull-down + SEC; as a3 but plasmid weight ratio 1:0.2:1.8 (TR2)
# [4] = target: β2-RF (full-length human BK β2 subunit with C-terminal mCherry-FLAG) (human) (UniProt Q9Y691); assay: as above
# [5] = target: β2-RF (full-length human BK β2 subunit with C-terminal mCherry-FLAG) (human) (UniProt Q9Y691); assay: pull-down + SEC; plasmid weight ratio 1:0.2:1.8 (TR2)
# Sequence of β3-Gρ (full-length human BK β3a subunit with C-terminal eGFP-ρ1D4) (natural protein) (Q9NPA1 whole entry): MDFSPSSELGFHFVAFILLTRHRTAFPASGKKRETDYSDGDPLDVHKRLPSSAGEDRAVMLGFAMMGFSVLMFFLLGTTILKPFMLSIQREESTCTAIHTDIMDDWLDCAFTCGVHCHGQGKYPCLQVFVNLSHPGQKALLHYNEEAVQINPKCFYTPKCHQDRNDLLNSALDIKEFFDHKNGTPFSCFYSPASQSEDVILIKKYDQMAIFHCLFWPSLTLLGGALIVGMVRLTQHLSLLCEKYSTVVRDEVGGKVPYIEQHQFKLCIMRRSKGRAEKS
# Sequence of hSlo1EM-TS (modified human Slo1 BK α subunit with a C-terminal twin-strep tag) (human) (Q12791 whole entry): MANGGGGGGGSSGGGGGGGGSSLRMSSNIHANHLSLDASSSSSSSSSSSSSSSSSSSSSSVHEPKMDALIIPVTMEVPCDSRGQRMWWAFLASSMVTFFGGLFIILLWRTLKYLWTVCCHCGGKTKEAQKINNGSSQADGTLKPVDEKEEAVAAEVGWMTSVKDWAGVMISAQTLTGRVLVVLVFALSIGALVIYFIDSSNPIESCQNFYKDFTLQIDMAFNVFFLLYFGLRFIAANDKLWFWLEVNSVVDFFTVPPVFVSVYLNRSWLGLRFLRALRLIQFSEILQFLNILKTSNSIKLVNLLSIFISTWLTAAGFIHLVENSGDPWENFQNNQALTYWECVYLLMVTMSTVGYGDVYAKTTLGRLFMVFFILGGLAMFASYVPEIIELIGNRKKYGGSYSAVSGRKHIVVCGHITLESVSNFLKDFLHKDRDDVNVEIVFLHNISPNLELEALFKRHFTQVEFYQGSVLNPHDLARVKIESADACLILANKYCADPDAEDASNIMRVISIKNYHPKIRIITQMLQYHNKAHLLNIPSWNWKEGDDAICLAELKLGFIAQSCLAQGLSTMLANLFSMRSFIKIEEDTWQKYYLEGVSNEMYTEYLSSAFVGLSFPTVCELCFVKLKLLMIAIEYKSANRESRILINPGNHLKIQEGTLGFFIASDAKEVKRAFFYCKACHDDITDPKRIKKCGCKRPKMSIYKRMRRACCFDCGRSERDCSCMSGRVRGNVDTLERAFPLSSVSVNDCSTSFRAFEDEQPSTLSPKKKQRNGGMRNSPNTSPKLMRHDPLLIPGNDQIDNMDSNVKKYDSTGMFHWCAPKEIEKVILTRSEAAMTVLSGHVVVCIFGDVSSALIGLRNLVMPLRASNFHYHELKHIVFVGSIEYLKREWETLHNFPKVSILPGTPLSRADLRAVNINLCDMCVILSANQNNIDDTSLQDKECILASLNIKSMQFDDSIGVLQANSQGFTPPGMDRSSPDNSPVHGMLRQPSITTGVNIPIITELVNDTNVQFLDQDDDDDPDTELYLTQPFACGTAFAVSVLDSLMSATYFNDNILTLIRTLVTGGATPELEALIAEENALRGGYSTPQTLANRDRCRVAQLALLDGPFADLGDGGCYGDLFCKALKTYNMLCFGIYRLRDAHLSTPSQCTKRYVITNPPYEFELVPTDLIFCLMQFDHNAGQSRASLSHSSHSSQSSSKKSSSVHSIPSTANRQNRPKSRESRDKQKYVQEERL
substance,measurement,setting,value
β3-Gρ (full-length human BK β3a subunit with C-terminal eGFP-ρ1D4) (natural protein),stoichiometry N (β3 per 4 Slo1),[1],1.2
same,molar ratio of β2-RF to β3-Gρ in the triply purified complex,[2],2.33 mol/mol
same,percent of total Slo1–β2 complexes that are ternary (hold β3 too),[2],14%
same,stoichiometry N (β3 per 4 Slo1),[3],2.1
same,percent of total Slo1–β2 complexes that are ternary (hold β3 too),[4],58%
same,molar ratio of β2-RF to β3-Gρ in the triply purified complex,[5],0.89 mol/mol
